By Kd is commonly meant the free concentration of one partner at which half of the binding sites on the other are occupied at equilibrium, for simple one-to-one binding. Usually koff stands for the first-order rate constant of dissociation. For orientation: kon means the second-order rate constant of association.

Test [1] deals with T1, recombinant cynomolgus sc-uPA (cynomolgus monkey, UniProt P16227 29-433 (Papio cynocephalus entry)).
T1 construct: The exact signal peptide is said not to be established; also called cyno pro-uPA; cyno pro-uPA-6xHis
Kind of test: SPR (Biacore T200), mAb immobilised, sc-uPA as analyte. As to the method: (§1) Affinities of the anti-uPA mAbs towards human and cynomolgus sc-uPA (SEQ ID NO: 1 and 3) were measured by SPR using a Biacore T200 instrument (GE Healthcare). These studies were performed using a direct binding procedure. […] Injection time was 60 sec., followed by 180 sec. dissociation. Regeneration was performed by injection of two short pulses of glycine-HCl pH 1.5.
(§2) The kinetic parameters (kₐ, kd and KD) for the interaction were calculated using a 1:1 interaction Langmuir fitting model.
(§3) Results are shown in Table 2 Association rate constant (ka) and Dissociation rate constant (kd) were measured. Equilibrium dissociation constant is calculated as KD=kd/ka.

Test [2] has as its target T2, recombinant human sc-uPA (human, UniProt P00749 21-431).
T2 construct: 411 amino acid single-chain zymogen expressed in HEK293; the 20-residue signal peptide is not present in the mature protein; also called human single-chain uPA; pro-uPA
The test is described as above. Here is the method:
as §1, §2, §3

In test [3] the target is T1, recombinant cynomolgus sc-uPA. The test is described as follows: cell-based or functional assay.
The target of test [4] is T2, recombinant human sc-uPA. The test is described as follows: cell-based or functional assay.
The target of test [5] is recombinant human tc-uPA (R&D Systems, #1310-SE) (human, UniProt P00749 21-178; P00749 179-431). The test is described as follows: cell-based or functional assay.
The target in test [6] is T2, recombinant human sc-uPA. The test is described as follows: cell-based or functional assay. The source holds these as a separate data set.
In test [7] the target is T1, recombinant cynomolgus sc-uPA. Kind of test: SPR (Biacore), mAb immobilised, sc-uPA as analyte, 25 C. As to the method:
(§4) In order to compare with murine mAb, the binding profile to recombinant human sc-uPA protein (SEQ ID NO: 1) and cynomolgus sc-uPA (SEQ ID NO: 3) was measured by surface plasmon resonance (SPR).
(§5) The experiments were performed on a Biacore™ instrument (GE Healthcare) and analysed with the BIAcore 4000 Evaluation Software. […] Recombinant human sc-uPA and cynomolgus sc-uPA proteins were diluted in HBS-N (GE Healthcare Cat BR-1006-70) with 1% BSA buffer with a dilution factor 3× ranging 1000-0.13 nM. Recombinant human sc-uPA and cynomolgus sc-uPA proteins were injected for 60 s, followed by a 600 s dissociation phase. Binding curves were measured at 25° C. with a flow rate of 30 μL/min. Regeneration of the chip surface was performed with pH1.5 Glycine for 25 s at 30 μl/min. Determination of the kinetic parameters was performed by fitting with a 1:1 binding model. Kinetic parameters were calculated and are stated in Table 14 below.

In test [8] the target is T2, recombinant human sc-uPA. The test is described as above. As to the method: as §4, §5
Test [9] addresses endogenously derived human uPA (primary human M1/M2 macrophages; human neutrophil granulocytes) (human, UniProt P00749 21-431). The test is described as follows: cell-based or functional assay.

B1: 0266-0000-0010 (antibody, IgG1, V domains shown)
VH: DVKLVESGGGLVKPGGSLKLSCVASGFTFSSYTMSWVRQTPEKRLEWVATISGGGSHIYYADSVKGRFTISRDNAKNTLYLQMSSLKSEDTAIYYCTRDGRDGSWFAYWGQGTLVTVSA
VL: DIVMTQSPATLSVTPGDRVSLSCRTSQSIGDYLHWYQQKSHESPRLLIKYVSQSISGIPSRFSGSGSGSDFTLSINSVESEDVGVYYCQNSHSFPLTFGSGTKLELK
As to B1, in [1], the Kd is 0.121 nM, the koff stood at 5.74e-05 s⁻¹ and the kon came to 473000 M⁻¹ s⁻¹. In the test with recombinant human sc-uPA [2], the equilibrium dissociation constant (Kd) came out at 1.02 nM, the off-rate constant (koff) was 0.000345 s⁻¹ and the association rate constant (kon) was 340000 M⁻¹ s⁻¹. Besides, in test [3], the “IC50, coupled zymogen activation assay with cynomolgus sc-uPA” value is 0.9 nM. Besides, the “IC50, coupled zymogen activation assay, sc-uPA immobilized on uPAR of U937 cells” value (from here on “IC50 … of U937 cells”) with recombinant human sc-uPA [4] was < 0.7 nM. Besides, the “IC50, tc-uPA catalytic assay (Ex. 7)” value in [5] came out at 113 nM. In addition, in the test with recombinant human sc-uPA [6], the “IC50, coupled zymogen activation assay (Ex. 5)” value is < 0.7 nM and the “IC50, sc-uPA activation assay (Ex. 8)” value stood at 5 nM.

B2: 0266-0000-0043 (antibody, human IgG4 S228P, kappa, V domains shown)
VH: DVKLVESGGGLVKPGGSLRLSCAASGFTFSSYTMSWVRQAPGKGLEWVATISGGGSHIYYADSVKGRFTISRDNAKNSLYLQMNSLRAEDTAVYYCTRDGRDGSWFAYWGQGTLVTVSS
VL: DIVMTQSPAFLSVTPGEKVTISCRTSQSIGDYLHWYQQKPDQSPKLLIKYVSQSISGIPSRFSGSGSGSDFTFTISSLEAEDAATYYCQNSHSFPLTFGGGTKVEIKR
notes: also called rec0266-0000-0043
For the molecule B2, in test [7], the Kd turned out to be 0.112 nM, the koff turned out to be 0.000164 s⁻¹ and the on-rate constant (kon) amounted to 1.46e+06 M⁻¹ s⁻¹. In the test with recombinant human sc-uPA [8], the dissociation constant Kd is 1.78 nM, the koff was 0.0009 s⁻¹ and the on-rate (kon) turned out to be 506000 M⁻¹ s⁻¹. Besides, in [9], the “IC50, plasmin generation by human M1/M2 macrophages” value turned out to be 2.1 nM. The “IC50 … of U937 cells” value in the test with recombinant human sc-uPA [4] was < 0.7 nM.

B3: 0266-0000-0015 (antibody, IgG1, V domains shown)
VH: QIQLVQSGPELKKPGETVRISCKASGYTFTDYGMNWIKQTPGKGLKWMGWINTYSGEPTYSDEFKGRFAFSLETSASTASLQINNLKNEDMATYFCARDFDDYDSSRYFDVWGAGTTVTVSS
VL: DIVMSQSPSSLGVSVGEKLTMTCKSSQSLLYSSYQKNFLAWYQQKPGQSPKLLISWASTRDSGVPDRFTGSGSGTDFTLTISSVKAEDLAVYYCQQYYIYPPTFGGGTKLEIK
notes: also called hybridoma m-uPA-1F58A1
In the case of B3, in test [1], the dissociation constant Kd was found to be 5.32 nM, the off-rate (koff) was found to be 0.00717 s⁻¹ and the association rate constant (kon) was found to be 1.35e+06 M⁻¹ s⁻¹. In the test with recombinant human sc-uPA [2], the Kd amounted to 0.37 nM, the koff is 0.000381 s⁻¹ and the association rate constant (kon) turned out to be 1.03e+06 M⁻¹ s⁻¹. Further, the “IC50 … of U937 cells” value with recombinant human sc-uPA [4] was < 0.7 nM. In addition, in test [5], the “IC50, tc-uPA catalytic assay (Ex. 7)” value amounted to 100 nM. Also, in the test with recombinant human sc-uPA [6], the “IC50, coupled zymogen activation assay (Ex. 5)” value is < 0.7 nM and the “IC50, sc-uPA activation assay (Ex. 8)” value is 3 nM.

Source of the values: patent US20160159924A1 (Novo Nordisk, published 2016).
